One molecule from publication PMC3988563 (2014) can be followed below.

The test deals with Ribosome termination complex (70S ribosomes, fMet-STOP mRNA and fMet-tRNA^fMet) (E. coli). Kind of test: with RF3:GDP.

B1: Fluorescein-labeled GAQ-RF1 (single-cysteine L82C or A220C) (natural protein)
chain: MKPSIVAKLEALHERHEEVQALLGDAQTIADQERFRALSREYAQLSDVSRSFTDWQQVQEDIETAQMMLDDPEMREMAQDELREAKEKSEQLEQQLQVLLLPKDPDDERNAFLEVRAGTGGDEAALFAGDLFRMYSRYAEARRWRVEIMSASEGEHGGYKEIIAKISGDGVYGRLKFESGGHRVQRVPATESQGRIHTSASTVAVMPELPDAELPDINPCDLRIDTFRSSGAGAQHVNTTDSAIRITHLPTGIVVESQDERSQHKNKAKALSVLGARIHAAEMAKRQQAEASTRRNLLGSGDRSDRNRTYNFPQGRVTDHRINLTLYRLDEVMEGKLDMLIEPIIQEHQADQLAALSEQE
modifications: fluorescein (fluorescein-maleimide) on the introduced cysteine
As usually defined, the koff is the rate constant with which the complex falls apart. Read a low koff as slow dissociation. In turn, B1 came in with an off-rate (koff) of 0.08 s⁻¹.
